The values below come from paper PMC4859805, “Molecular mechanism of activation-triggered subunit exchange in Ca^2+/calmodulin-dependent protein kinase II” (eLife, 2016).

B1: Peptide B (human CaMKII-α 290-309, unphosphorylated, unlabeled) [human] / human CaMKII-α hub domain [human] (parent complex)
chain 1: LKKFNARRKLKGAILTTMLA
chain 2: VRKQEIIKVTEQLIEAISNGDFESYTKMCDPGMTAFEPEALGNLVEGLDFHRFYFENLWSRNSKPVHTTILNPHIHLMGDESACIAYIRITQYLDAGGIPRTAQSEETRVWHRRDGKWQIVHFHRSGAPSV

This assay covers variants of B1. In words: fluorescence polarisation competition; point read at 500 µM unlabeled peptide; 2 nM labeled peptide A bound to 30 µM hub; lower polarization = more labeled peptide competed off; parent: 150; read off a plot.
Regarding chain 1 LKKFNARRKLEGAILTTMLA [chain 1 K11E], the response is approximately 180.
Take chain 1 LKKFNAERKLKGAILTTMLA [chain 1 R7E]: the response is approximately 160.
Next, chain 1 LKEFNAERKLEGAILTTMLA [chain 1 K3E, chain 1 R7E, chain 1 K11E]: approximately 210.
